Measured values taken from article PMC9552169, “Mutations Increasing Cofactor Affinity, Improve Stability and Activity of a Baeyer–Villiger Monooxygenase” (ACS Catalysis, 2022).

System: O=C1CCCCC1
Experiment: purified protein
Details: table prints only 'substrate', cyclohexanone taken from the standard assay (Figure 2: 100 μM NADPH, 50 mM TrisHCl pH 8.5)

CHMOAcineto (CHMOwt) (Acinetobacter johnsonii)
Km: 6.7 ± 2.0 µM
